# Measured values taken from patent US20110009342A1, “USES OF PDCD5 POLYPEPTIDE FOR TUMOR CHEMOTHERAPY AND ORGAN PROTECTION” (priority 2008, published 2011).
# “Also recorded” adds a separate entry of the source.
# B1: PDCD5-FITC: rhPDCD5 protein covalently labeled by fluorescein isothiocyanate (conjugate, UniProt O14737 2-125, looked up)
# Programmed cell death protein …: ADEELEALRRQRLAELQAKHGDPGDAAQQEAKHREAEMRNSILAQVLDQSARARLSNLALVKPEKTKAVENYLIQMARYGQLSEKVSEQGLIEILKKVSQQTEKTTTVKFNRRKVMDSDEDDDY
# modifications: FITC label
# notes: rhPDCD5 protein covalently labeled by fluorescein isothiocyanate
# Legend:
# Format in all cases: cell-based
# HEK293 cells [1] = assay: intracellular localization of FITC-labeled PDCD5, fluorescence microscopy; conditions: 20 μg/mL, 5 hours
# Description: Analysis of intracellular localization of the FITC-labeled recombinant PDCD5 protein by fluorescence microscopy: HEK293 cells were grown in specialized glass-bottom microwell dishes (MatTek Corp., USA) to about 50% confluence and washed, and then fresh 10% fetal bovine serum medium and PDCD5-FITC was added to a final concentration of 20 μg/mL. At each time point shown in the drawing, the cells were rinsed twice with PBS buffer and fixed with 2% paraformaldehyde in PBS for 15 min at room temperature. Cells were imaged using a TCS-SP laser-scanning confocal microscope with a 40× or 63×oil immersion lenses (Leica Microsystems, Mannheim, Germany). Nuclei were visualized by Hoechst 33342 (red regions, a pseudocolor).
# HEK293 cells [2] = assay: PDCD5-FITC internalization, flow cytometry; conditions: incubated at 4° C.
# Description: Methods: HEK293 and U937 cells (ATCC) were maintained in RPMI 1640 (Life Technologies, USA), supplemented with 10% heat-inactivated fetal bovine serum (Hyclone, USA), penicillin (100 units/mL), streptomycin (100 μg/mL), and L-glutamine (2 mM). The HEK293 cells were adherent cells with expression of caveolin-1, while the U937 cells were suspension cells without expression of caveolin-1.
# The purified rhPDCD5 protein from Example 2 was suspended into 0.025 M sodium carbonate-sodium bicarbonate buffer (pH 9.0). The rhPDCD5 protein was labeled (covalent) by fluorescein isothiocyanate (FITC, Sigma-Aldrich) as described by Masseyeff R. F. et al. (Methods Immunology Analysis 3, 237-238, 1993), and then purified by Sephadex G25 to remove free FITC to obtain PDCD5-FITC protein.
# Results: Performance of Flow Cytometry: Quantification of internalized FITC-labeled PDCD5 recombinant protein: HEK293cells were plated in 24-well plates to about 70% confluence, […] FIG. 3. After incubation, the cells were then washed twice, trypsinized, centrifuged, again washed twice with PBS, and finally analyzed by flow cytometry using a FACSCalibur flow cytometer (BD Biosciences).
# U937 cells = assay: PDCD5-FITC internalization, flow cytometry; conditions: incubated at 4° C.
molecule,measurement,setting,value
B1,intracellular localization of fluorescence,HEK293 cells [1],localized to discrete compartments in the cytoplasm
same,internalization (uptake) at 4° C.,HEK293 cells [2],blocked; also recorded: inhibited
same,internalization (uptake) at 4° C.,U937 cells,blocked; also recorded: inhibited
